Experimental data taken from IntAct's records for PubMed 31515488.

B1: Methylmalonyl-CoA epimerase, mitochondrial (Homo sapiens), Q96PE7 (parent)
chain: MARVLKAAAANAVGLFSRLQAPIPTVRASSTSQPLDQVTGSVWNLGRLNHVAIAVPDLEKAAAFYKNILGAQVSEAVPLPEHGVSVVFVNLGNTKMELLHPLGRDSPIAGFLQKNKAGGMHHICIEVDNINAAVMDLKKKKIRSLSEEVKIGAHGKPVIFLHPKDCGGVLVELEQA
partner: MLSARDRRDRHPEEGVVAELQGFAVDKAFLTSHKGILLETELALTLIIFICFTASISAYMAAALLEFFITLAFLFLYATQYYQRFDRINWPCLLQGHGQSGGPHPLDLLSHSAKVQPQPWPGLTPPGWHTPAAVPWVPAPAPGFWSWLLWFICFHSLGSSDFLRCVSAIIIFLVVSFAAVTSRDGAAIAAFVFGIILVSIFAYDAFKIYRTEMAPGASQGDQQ
B2: Glycine N-methyltransferase (Homo sapiens), Q14749 (parent)
chain: MVDSVYRTRSLGVAAEGLPDQYADGEAARVWQLYIGDTRSRTAEYKAWLLGLLRQHGCQRVLDVACGTGVDSIMLVEEGFSVTSVDASDKMLKYALKERWNRRHEPAFDKWVIEEANWMTLDKDVPQSAEGGFDAVICLGNSFAHLPDCKGDQSEHRLALKNIASMVRAGGLLVIDHRNYDHILSTGCAPPGKNIYYKSDLTKDVTTSVLIVNNKAHMVTLDYTVQVPGAGQDGSPGLSKFRLSYYPHCLASFTELLQAAFGGKCQHSVLGDFKPYKPGQTYIPCYFIHVLKRTD
B3: Pleckstrin homology domain-containing family N member 1 (Homo sapiens), Q494U1 (parent)
chain: MGNSHCVPQAPRRLRASFSRKPSLKGNREDSARMSAGLPGPEAARSGDAAANKLFHYIPGTDILDLENQRENLEQPFLSVFKKGRRRVPVRNLGKVVHYAKVQLRFQHSQDVSDCYLELFPAHLYFQAHGSEGLTFQGLLPLTELSVCPLEGSREHAFQITGPLPAPLLVLCPSRAELDRWLYHLEKQTALLGGPRRCHSAPPQRRLTRLRTASGHEPGGSAVCASRVKLQHLPAQEQWDRLLVLYPTSLAIFSEELDGLCFKGELPLRAVHINLEEKEKQIRSFLIEGPLINTIRVVCASYEDYGHWLLCLRAVTHREGAPPLPGAESFPGSQVMGSGRGSLSSGGQTSWDSGCLAPPSTRTSHSLPESSVPSTVGCSSQHTPDQANSDRASIGRRRTELRRSGSSRSPGSKARAEGRGPVTPLHLDLTQLHRLSLESSPDAPDHTSETSHSPLYADPYTPPATSHRRVTDVRGLEEFLSAMQSARGPTPSSPLPSVPVSVPASDPRSCSSGPAGPYLLSKKGALQSRAAQRHRGSAKDGGPQPPDAPQLVSSAREGSPEPWLPLTDGRSPRRSRDPGYDHLWDETLSSSHQKCPQLGGPEASGGLVQWI
partner: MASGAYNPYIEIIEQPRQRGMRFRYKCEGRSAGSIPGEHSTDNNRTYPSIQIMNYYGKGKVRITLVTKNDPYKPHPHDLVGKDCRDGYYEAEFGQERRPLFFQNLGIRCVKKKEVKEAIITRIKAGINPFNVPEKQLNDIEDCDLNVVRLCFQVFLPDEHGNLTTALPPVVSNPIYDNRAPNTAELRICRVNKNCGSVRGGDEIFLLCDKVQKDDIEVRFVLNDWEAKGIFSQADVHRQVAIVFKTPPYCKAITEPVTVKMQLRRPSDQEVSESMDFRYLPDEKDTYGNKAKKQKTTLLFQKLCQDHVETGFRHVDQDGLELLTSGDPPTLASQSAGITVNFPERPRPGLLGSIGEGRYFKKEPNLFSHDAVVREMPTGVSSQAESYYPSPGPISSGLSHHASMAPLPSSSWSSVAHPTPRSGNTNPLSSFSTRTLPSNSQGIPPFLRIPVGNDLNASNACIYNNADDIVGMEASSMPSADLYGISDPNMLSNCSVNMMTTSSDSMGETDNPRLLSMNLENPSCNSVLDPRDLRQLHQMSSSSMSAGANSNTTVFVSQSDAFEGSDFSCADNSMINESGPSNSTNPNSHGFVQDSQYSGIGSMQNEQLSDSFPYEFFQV
B4: Keratin, type I cytoskeletal 40 (Homo sapiens), Q6A162 (parent)
chain: MTSDCSSTHCSPESCGTASGCAPASSCSVETACLPGTCATSRCQTPSFLSRSRGLTGCLLPCYFTGSCNSPCLVGNCAWCEDGVFTSNEKETMQFLNDRLASYLEKVRSLEETNAELESRIQEQCEQDIPMVCPDYQRYFNTIEDLQQKILCTKAENSRLAVQLDNCKLATDDFKSKYESELSLRQLLEADISSLHGILEELTLCKSDLEAHVESLKEDLLCLKKNHEEEVNLLREQLGDRLSVELDTAPTLDLNRVLDEMRCQCETVLANNRREAEEWLAVQTEELNQQQLSSAEQLQGCQMEILELKRTASALEIELQAQQSLTESLECTVAETEAQYSSQLAQIQCLIDNLENQLAEIRCDLERQNQEYQVLLDVKARLEGEINTYWGLLDSEDSRLSCSPCSTTCTSSNTCEPCSAYVICTVENCCL

Variants of: B1
Conditions: with cklf5_human CMTM5, Q96DZ9

Row | Variant | effect of a mutation on the interaction
1 | A76V | with no effect

Variants of: B2
Conditions: with ntaq1_human NTAQ1, Q96HA8

Row | Variant | effect of a mutation on the interaction
2 | I211T | with no effect

Variants of: B2
Conditions: with arrc_human ARR3, P36575
arrc_human ARR3, P36575, sequence (P36575 whole entry): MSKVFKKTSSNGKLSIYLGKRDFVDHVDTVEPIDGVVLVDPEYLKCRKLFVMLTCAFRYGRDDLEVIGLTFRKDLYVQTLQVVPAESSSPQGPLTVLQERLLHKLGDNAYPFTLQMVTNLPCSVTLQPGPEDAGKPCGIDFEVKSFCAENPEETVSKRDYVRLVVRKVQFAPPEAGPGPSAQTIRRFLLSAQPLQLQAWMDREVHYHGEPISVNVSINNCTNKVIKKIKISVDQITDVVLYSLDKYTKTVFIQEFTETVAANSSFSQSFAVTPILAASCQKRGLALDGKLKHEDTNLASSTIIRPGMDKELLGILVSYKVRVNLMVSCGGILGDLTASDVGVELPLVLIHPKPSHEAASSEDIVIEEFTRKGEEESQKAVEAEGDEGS

Row | Variant | effect of a mutation on the interaction
3 | I211T | disrupting interaction strength

Variants of: B2
Conditions: with arrb1_human ARRB1, P49407
arrb1_human ARRB1, P49407, sequence (P49407 whole entry): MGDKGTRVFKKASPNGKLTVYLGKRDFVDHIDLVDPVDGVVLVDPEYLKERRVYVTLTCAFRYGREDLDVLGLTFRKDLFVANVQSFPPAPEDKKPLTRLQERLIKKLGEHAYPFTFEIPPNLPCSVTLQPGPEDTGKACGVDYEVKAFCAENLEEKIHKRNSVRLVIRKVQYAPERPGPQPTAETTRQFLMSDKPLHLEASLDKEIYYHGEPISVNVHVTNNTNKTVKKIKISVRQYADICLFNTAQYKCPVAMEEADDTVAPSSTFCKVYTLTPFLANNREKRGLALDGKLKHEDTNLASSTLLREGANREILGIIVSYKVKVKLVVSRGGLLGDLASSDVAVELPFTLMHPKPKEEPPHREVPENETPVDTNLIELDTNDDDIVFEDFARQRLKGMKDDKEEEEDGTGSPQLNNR

Row | Variant | effect of a mutation on the interaction
4 | I211T | disrupting interaction strength

Variants of: B3
Conditions: with rel_human REL

Row | Variant | effect of a mutation on the interaction
5 | R487P | with no effect

Variants of: B4
Conditions: with wt1_human WT1, P19544
wt1_human WT1, P19544, sequence (P19544 whole entry): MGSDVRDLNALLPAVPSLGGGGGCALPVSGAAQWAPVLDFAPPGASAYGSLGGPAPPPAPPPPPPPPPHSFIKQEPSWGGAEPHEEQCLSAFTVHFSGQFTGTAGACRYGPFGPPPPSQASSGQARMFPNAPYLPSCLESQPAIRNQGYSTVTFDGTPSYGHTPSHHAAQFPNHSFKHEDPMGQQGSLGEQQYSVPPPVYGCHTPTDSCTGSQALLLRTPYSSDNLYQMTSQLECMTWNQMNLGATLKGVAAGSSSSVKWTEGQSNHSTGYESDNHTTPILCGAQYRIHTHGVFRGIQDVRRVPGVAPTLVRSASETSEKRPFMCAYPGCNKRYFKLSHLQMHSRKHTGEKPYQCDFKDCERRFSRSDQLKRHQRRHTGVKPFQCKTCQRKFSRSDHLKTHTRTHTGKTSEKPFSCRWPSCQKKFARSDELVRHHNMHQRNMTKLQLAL

Row | Variant | effect of a mutation on the interaction
6 | R235H | with no effect
7 | S406L | with no effect

Variants of: B4
Conditions: with k2c4_human KRT4, P19013
k2c4_human KRT4, P19013, sequence (P19013 whole entry): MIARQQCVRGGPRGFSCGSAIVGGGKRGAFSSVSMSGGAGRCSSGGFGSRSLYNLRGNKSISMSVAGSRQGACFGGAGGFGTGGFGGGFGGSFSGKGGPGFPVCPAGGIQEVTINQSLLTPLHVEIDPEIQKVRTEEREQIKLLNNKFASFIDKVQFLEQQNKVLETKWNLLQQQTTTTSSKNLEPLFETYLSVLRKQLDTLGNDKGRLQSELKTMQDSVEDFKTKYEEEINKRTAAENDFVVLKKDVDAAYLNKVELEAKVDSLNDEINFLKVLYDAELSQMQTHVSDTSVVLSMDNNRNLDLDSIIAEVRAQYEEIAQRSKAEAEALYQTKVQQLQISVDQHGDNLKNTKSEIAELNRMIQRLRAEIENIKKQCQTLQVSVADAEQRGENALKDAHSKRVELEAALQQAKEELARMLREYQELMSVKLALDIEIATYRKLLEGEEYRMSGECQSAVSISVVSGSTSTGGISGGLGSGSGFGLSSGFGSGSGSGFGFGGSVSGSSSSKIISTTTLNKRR

Row | Variant | effect of a mutation on the interaction
8 | R235H | with no effect
9 | S406L | with no effect

Variants of: B4
Conditions: with mta1_human MTA1, Q13330
mta1_human MTA1, Q13330, sequence (Q13330 whole entry): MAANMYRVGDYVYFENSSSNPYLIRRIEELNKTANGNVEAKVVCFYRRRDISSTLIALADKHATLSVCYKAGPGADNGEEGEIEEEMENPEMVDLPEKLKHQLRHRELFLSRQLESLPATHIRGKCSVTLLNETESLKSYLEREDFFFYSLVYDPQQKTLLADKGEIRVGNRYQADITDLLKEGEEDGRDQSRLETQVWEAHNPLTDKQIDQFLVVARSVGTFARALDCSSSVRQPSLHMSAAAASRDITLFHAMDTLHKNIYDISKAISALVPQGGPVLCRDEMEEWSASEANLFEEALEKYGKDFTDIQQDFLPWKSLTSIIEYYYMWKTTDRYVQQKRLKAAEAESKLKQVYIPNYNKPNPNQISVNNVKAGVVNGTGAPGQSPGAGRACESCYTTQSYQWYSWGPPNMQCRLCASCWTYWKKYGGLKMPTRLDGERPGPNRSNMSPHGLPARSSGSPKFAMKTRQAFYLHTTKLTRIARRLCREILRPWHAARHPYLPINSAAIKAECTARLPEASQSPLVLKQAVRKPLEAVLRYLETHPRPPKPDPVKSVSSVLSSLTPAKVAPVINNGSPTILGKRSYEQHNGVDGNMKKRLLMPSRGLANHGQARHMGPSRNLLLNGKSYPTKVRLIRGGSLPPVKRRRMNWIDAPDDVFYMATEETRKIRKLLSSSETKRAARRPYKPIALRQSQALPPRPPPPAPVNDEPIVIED

Row | Variant | effect of a mutation on the interaction
10 | R235H | with no effect
11 | S406L | with no effect

Variants of: B4
Conditions: with prs8_human PSMC5, P62195
prs8_human PSMC5, P62195, sequence (P62195 whole entry): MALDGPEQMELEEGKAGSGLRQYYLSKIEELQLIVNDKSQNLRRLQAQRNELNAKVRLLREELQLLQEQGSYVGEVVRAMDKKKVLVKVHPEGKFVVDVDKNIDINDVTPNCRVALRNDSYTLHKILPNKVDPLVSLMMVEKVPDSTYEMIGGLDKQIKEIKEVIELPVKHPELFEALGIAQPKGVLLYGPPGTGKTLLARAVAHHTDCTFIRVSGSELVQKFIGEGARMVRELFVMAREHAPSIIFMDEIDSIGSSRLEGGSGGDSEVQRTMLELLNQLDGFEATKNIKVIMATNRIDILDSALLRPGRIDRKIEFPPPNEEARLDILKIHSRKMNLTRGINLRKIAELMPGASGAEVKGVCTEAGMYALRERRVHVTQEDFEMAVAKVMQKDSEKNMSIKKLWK

Row | Variant | effect of a mutation on the interaction
12 | R235H | with no effect
13 | S406L | with no effect

Variants of: B4
Conditions: with snai1_human SNAI1, O95863
snai1_human SNAI1, O95863, sequence (O95863 whole entry): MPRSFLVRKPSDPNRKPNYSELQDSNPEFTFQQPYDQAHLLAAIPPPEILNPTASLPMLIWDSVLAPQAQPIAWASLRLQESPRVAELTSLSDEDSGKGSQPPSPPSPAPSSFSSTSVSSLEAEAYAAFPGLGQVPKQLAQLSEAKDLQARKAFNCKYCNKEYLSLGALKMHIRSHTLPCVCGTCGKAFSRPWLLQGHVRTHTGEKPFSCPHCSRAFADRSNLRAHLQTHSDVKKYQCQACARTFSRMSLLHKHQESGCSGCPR

Row | Variant | effect of a mutation on the interaction
14 | R235H | with no effect
15 | S406L | with no effect
